Consider two molecules from CN114426574A (WUHAN VIRUS INST OF CHINESE ACADEMY OF SCIENCES, dated 2022).

The assay addresses WH-RBD-TFc (SARS-CoV-2 spike glycoprotein receptor binding domain, thrombin site, human IgG1 Fc fusion) (SARS-CoV-2; human, UniProt P0DTC2 319-541).

B1: Fab F1-B5 (Fab, V domains shown)
VH: EVQLVQSGGGVVQPGRSLRLSCAASGFTVSSNYMSWVRQAPGKGLEWVSVIYSGGSTYYADSVKGRFTISRDNSKNTLYLQMNSLRAEDTAVYYCARGDGSDDYYYGMDVWGQGTTVTVSS
VL: QAVLTQPSSVSGAPGQRVTISCTGSSSNVGAGYDVHWYQQLPGTAPKLLIYGNSNRPSGVPDRFSGSKSGTSASLAITGLQAEDEADYYCQSYDSSLSGSVFGGGTKLTVLG
The molecule B1 came in with an EC50 of 63 nM.

B2: Fab F1-B3 (Fab, V domains shown)
VH: QVQLQESGGGLVQPGGSLRLSCAASGFTVSSNYMSWVRQAPGEGLEWVSSISSSSSYIYYADSVKGRFTISRDNAKNSLYLQMNSLRAEDTAVYYCARGKWLRGAFDIWGQGTTVTVSS
VL: NFMLTQPHSMSESPGKTVTISCTGSSGSIANNYVQWYRQRPGSAPITVIYEDNQRPSGVPDRFSGSIDSSSNSASLTISGLKTEDEADYYCQSYDSSTHWVFGGGTKLTVLG
B2 had an EC50 of 12 nM.
